The values below come from patent US20260146094A1 (CHIA TAI TIANQING PHARMACEUTICAL GROUP, published 2026).

Experiment [1] concerns the target T1, macaque c-Met on macaque epithelial cell 4MBr-5 (macaque).
T1 construct: whole, on cells; also called 4MBr-5 cell
Briefly: flow cytometry on 4MBr-5 macaque epithelial cells.

For experiment [2], the target named is human c-Met on natural human tumor cell lines (H1993, MKN45, KP4, H441) (human, UniProt P08581 25-1390). The experiment can be described thus: cell-based or functional assay.
Experiment [3] deals with T2, Human c-Met-His (SinoBiological, product catalog No. 10692-H08H) (human, UniProt P08581 25-932).
T2 construct: Bought protein; also called human c-Met-His protein; c-Met-His protein; not shown: His tag
Briefly: competitive ELISA, coated human c-Met-His, blocking of HGFβ. As to the method:
(§1) After the plate was washed, an HRP-conjugated streptavidin (eBioscience, product catalog No. 18-4100-51) was added. The plate was incubated at 25° C. for 1 h and then washed 5 times, and a TMB substrate solution (TIANGEN, product catalog No. PA107) was added at 100 μL/well for color development. The light absorption signal values at the wavelength of 450 nm and the reference wavelength of 650 nm were measured. A curve (FIG. 2A) was fit, and the IC₅₀ values (Table 4) were calculated.
A curve (FIG. 2B) was fit based on the results, and the IC₅₀ values were calculated (Table 4).

The target of experiment [4] is T2, Human c-Met-His (SinoBiological, …). Briefly: competitive ELISA, coated human c-Met-His, blocking of biotin-HGF. As for the experimental part: as §1
On the technique in general: ELISA stands for enzyme-linked immunosorbent assay.

T2 sequence (P08581 25-932 limits assumed): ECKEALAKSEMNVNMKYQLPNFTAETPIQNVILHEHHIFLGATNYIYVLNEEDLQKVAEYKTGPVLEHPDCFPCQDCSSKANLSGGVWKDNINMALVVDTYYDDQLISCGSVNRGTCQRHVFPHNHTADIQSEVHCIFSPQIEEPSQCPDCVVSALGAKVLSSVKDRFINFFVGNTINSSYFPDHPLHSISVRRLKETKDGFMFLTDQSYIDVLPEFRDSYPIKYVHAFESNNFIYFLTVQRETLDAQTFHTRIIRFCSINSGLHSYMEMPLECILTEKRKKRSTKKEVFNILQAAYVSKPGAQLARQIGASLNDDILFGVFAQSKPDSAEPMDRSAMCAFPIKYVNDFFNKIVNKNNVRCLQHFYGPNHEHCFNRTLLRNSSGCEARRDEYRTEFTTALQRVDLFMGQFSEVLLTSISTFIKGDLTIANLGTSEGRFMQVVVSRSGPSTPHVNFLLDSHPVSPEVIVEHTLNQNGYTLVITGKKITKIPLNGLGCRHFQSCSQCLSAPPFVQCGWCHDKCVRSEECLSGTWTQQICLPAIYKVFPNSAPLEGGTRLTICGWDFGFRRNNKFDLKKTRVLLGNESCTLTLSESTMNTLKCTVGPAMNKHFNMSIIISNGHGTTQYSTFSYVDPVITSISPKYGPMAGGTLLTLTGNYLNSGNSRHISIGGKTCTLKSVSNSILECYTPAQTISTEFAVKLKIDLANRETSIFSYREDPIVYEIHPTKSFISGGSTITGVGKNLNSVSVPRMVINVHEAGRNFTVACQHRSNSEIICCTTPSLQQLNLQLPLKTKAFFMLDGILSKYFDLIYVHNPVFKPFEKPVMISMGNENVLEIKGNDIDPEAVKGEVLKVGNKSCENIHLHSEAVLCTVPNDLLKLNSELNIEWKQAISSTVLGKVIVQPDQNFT
human c-Met on natural human tumor cell lines (H1993, MKN45, KP4, H441), sequence (P08581 25-1390): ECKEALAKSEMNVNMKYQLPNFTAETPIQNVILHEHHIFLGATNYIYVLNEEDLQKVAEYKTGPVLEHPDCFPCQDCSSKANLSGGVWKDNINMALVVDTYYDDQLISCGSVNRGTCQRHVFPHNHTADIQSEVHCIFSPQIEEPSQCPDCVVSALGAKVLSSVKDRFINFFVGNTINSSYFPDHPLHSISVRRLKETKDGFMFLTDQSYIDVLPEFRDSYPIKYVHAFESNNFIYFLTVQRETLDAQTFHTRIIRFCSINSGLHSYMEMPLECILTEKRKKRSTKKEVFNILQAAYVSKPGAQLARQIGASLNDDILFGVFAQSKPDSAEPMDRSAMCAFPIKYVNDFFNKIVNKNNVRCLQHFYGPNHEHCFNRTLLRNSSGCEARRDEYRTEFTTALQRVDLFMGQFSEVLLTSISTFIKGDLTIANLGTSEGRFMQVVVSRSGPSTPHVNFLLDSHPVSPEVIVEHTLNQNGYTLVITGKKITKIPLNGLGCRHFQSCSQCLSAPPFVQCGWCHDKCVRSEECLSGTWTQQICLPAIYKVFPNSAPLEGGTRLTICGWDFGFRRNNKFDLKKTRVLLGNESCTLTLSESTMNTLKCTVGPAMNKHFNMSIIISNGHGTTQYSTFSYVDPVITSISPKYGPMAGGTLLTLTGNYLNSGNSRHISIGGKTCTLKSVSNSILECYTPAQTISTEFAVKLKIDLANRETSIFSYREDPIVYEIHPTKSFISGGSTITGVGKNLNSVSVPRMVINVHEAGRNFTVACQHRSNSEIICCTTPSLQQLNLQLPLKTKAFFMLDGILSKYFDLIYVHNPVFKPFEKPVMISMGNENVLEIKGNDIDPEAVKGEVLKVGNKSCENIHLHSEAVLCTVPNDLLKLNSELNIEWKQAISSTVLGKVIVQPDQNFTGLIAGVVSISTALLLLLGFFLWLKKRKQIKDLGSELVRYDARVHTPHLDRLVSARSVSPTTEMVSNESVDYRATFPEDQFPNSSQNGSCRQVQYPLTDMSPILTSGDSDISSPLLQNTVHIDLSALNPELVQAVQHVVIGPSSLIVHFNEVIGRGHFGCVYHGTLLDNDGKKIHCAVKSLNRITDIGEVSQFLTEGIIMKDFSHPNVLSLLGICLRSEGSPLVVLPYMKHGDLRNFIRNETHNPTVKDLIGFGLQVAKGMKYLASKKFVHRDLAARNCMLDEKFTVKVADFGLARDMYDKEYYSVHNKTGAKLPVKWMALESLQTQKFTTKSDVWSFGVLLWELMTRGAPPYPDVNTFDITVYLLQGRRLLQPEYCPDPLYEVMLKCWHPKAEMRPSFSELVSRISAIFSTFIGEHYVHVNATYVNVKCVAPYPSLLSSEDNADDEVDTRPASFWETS

B1: 1B-3B11-Fc (antibody, human IgG1, V domains shown)
VH: QVQLVESGGGSVQAGGSLRLSCVVSGYTYSSVAWFRQTPGKEREGVAVINPGGDNTDYTYAVKGRFTISRDSAKSTVFLQMNNLESEDTAMYYCAAGRTFGGTWMDRNKWKYWGQGTLVTVSS
notes: Expressed in CHO; also called anti-human c-Met VHH-Fc chimeric antibody 1B-3B11-Fc
Regarding B1, the EC50 (commonly the concentration giving half of the maximal effect) in experiment [1] turned out to be 0.736 nM.

B2: 3B-1C7-Fc (antibody, human IgG1, V domains shown)
VH: QVQLVESGGDSVQAGGSLRLSCIASGFTFDGTTMGWYRQAPGDECELVSDISSDGNTYYSDSVKGRFTISQGNAKNTVYLQMNSLTPEDTAVYYCAAAEFRLLLRPLCRQDDYGYWGQGTLVTVSS
notes: also called anti-human c-Met VHH-Fc chimeric antibody 3B-1C7-Fc
In the case of B2, the EC50 in experiment [1] stood at 0.284 nM. Compared with the last molecule, the EC50 is about 2.6-fold lower.

B3: 1B-1A8-Fc (antibody, human IgG1, V domains shown)
VH: EVQLVESGGGLVQPGGSLRLSCVASGFTFKSYAMDWVRQAPGKGLEWIAGINSAGSPSYEASVKGRFTISRDNAENTLYLQLNSLKTEDTAMYYCTKCRDFRSPYCRPGQGTLVTVSS
notes: also called anti-human c-Met VHH-Fc chimeric antibody 1B-1A8-Fc
As to B3, in experiment [2], the “Phosphorylation inhibition IC50 (nM), H441 cells, Phospho-c-Met (Tyr1234/1235) AlphaLISA” value turned out to be 0.85 nM and the “Phosphorylation inhibition, Maximum inhibition rate, H441 cells” value turned out to be 90%. The same molecule gave an EC50 in experiment [1] of 0.471 nM. Further, in experiment [3], the IC50 (commonly the concentration that gives 50% inhibition) amounted to 3.56 nM and the Maximum blocking rate was 75%. In experiment [4], the IC50 came to 3.14 nM and the Maximum blocking rate was found to be 63%.

B4: 1B-1B2-Fc (antibody, human IgG1, V domains shown)
VH: EVQLVESGGGSVQAGGSLRLSCTASGFTFDMGWYRQAPGDECELVSSISSDGNSDYLDSVKGRFTISQDNAKNTVYLQMNSLKPEDTAVYYCAANGAGHLVLRPLCGSNAVDAWGQGTLVTVSS
notes: also called anti-human c-Met VHH-Fc chimeric antibody 1B-1B2-Fc
Molecule B4 showed an EC50 in experiment [1] of 0.418 nM.

B5: 1B-1B6-Fc (antibody, human IgG1, V domains shown)
VH: QVQLVESGGDSVQAGGSLRLSCAASAHAYSSGCMGWFRQAPGKGREGVATIYTRNDFTYYSDSVKGRFTISRDDAKNTVYLQVNSLKAEDTAMYYCAAGSPFRYAGAWNVCGLKEEDYNYWGQGTLVTVSS
notes: also called anti-human c-Met VHH-Fc chimeric antibody 1B-1B6-Fc
Consider B5, for which the EC50 in experiment [1] was determined as 0.682 nM.

B6: 1B-1C7-Fc (antibody, human IgG1, V domains shown)
VH: QVQLVESGGGLVQPGGSLRLSCAASGYSYSANCVGWFYQAPGKEREGVAAINTGGETATYADFVKGRFTISQDYAKNTVYLQMNSLKSEDTGMYYCAAVGTRKYWDECSLSQHAYKNWGQGTLVTVSS
notes: also called anti-human c-Met VHH-Fc chimeric antibody 1B-1C7-Fc
Turning to B6, it took 0.071 nM to reach a half-maximal effect in experiment [1] (EC50).
